Test results: the supplement of paper PMC10065799, “High-throughput profiling of sequence recognition by tyrosine kinases and SH2 domains using bacterial peptide display” (eLife, 2023)

How the values were obtained:
AncSZ = test: phosphorylation enrichment, bacterial display (enrichment ratio); higher = better substrate or ligand; peptides without Tyr show the background
EPHB1 = EPHB1 (UniProt P54762); test: as above
EPHB2 = EPHB2 (UniProt P29323); test: as above
FGFR1 = FGFR1 (UniProt P11362); test: as above
Sequence of FGFR1 (P11362 whole entry, looked up): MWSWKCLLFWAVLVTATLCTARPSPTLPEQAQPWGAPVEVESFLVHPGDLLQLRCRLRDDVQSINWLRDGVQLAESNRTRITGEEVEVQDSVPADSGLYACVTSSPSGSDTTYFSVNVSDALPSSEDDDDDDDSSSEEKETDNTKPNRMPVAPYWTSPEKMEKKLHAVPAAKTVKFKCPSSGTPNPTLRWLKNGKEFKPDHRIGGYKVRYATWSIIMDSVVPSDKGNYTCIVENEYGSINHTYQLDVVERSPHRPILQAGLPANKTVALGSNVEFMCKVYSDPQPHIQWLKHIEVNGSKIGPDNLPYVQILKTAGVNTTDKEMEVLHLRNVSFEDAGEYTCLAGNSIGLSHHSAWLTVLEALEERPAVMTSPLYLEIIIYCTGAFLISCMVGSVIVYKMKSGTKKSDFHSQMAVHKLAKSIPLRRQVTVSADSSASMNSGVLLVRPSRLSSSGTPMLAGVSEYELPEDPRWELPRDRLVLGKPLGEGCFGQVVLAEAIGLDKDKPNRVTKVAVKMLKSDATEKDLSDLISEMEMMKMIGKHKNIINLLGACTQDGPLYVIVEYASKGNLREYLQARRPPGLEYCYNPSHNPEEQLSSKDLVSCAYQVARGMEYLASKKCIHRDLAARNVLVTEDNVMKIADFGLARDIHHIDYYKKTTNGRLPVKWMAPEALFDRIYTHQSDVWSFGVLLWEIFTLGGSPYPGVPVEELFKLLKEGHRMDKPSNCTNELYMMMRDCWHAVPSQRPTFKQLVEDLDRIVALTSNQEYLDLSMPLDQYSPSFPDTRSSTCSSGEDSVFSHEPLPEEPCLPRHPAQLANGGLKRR

FGFR3 = FGFR3 (UniProt P22607); test: as above
Sequence of FGFR3 (P22607 whole entry, looked up): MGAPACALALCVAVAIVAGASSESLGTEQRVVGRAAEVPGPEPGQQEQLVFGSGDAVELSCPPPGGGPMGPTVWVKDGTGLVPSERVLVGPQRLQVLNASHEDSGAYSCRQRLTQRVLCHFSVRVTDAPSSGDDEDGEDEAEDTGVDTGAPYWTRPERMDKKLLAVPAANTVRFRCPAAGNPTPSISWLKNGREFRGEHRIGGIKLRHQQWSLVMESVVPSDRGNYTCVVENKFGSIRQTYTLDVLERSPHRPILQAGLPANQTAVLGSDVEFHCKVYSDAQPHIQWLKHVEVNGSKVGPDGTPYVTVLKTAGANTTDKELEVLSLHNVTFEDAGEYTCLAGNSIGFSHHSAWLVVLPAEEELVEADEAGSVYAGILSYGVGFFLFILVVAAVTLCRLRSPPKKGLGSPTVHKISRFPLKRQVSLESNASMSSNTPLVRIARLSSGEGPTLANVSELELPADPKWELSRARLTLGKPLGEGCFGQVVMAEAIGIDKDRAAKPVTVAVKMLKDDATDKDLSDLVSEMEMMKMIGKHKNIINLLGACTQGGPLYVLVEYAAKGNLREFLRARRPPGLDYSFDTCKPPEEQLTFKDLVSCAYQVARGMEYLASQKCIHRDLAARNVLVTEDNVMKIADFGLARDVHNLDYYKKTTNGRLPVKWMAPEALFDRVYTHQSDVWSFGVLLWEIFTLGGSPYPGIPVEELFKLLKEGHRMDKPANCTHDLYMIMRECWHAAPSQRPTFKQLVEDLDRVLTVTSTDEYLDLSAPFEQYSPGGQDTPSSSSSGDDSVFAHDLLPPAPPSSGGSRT

Fer (mouse) = test: as above
Fes = Fes (UniProt P07332); test: as above
Fyn = Fyn (UniProt P06241); test: as above
Sequence of Fyn (P06241 whole entry, looked up): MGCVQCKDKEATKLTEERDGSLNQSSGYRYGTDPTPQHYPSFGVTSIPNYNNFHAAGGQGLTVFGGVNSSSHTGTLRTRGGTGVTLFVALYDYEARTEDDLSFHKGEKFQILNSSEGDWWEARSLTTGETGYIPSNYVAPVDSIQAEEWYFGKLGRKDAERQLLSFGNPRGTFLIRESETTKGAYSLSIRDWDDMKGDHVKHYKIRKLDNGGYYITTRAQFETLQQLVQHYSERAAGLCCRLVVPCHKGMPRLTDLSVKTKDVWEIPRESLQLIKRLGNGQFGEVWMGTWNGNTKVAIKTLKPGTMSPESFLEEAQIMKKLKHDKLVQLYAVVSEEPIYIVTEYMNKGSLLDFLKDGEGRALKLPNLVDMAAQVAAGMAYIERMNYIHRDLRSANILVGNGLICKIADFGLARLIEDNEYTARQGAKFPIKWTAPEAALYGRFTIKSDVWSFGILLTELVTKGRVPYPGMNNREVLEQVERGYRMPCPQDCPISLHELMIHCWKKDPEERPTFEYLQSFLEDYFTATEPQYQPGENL

Hck = Hck (UniProt P08631); test: as above
Sequence of Hck (P08631 whole entry, looked up): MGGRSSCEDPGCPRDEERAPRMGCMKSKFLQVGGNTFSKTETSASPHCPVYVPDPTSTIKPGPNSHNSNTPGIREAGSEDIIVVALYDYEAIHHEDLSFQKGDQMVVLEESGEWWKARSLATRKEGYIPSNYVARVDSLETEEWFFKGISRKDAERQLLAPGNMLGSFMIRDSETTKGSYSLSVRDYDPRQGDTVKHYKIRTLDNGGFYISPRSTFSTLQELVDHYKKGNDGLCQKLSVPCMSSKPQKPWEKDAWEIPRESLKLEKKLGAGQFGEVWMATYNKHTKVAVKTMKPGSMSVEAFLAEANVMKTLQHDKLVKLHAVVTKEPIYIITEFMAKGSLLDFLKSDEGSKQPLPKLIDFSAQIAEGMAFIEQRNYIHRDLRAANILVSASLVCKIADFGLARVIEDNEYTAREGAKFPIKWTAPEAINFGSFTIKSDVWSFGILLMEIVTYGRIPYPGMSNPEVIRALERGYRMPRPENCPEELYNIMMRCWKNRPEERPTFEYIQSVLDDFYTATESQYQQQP

Jak2 = Jak2 (UniProt O60674); test: as above
Sequence of Jak2 (O60674 whole entry, looked up): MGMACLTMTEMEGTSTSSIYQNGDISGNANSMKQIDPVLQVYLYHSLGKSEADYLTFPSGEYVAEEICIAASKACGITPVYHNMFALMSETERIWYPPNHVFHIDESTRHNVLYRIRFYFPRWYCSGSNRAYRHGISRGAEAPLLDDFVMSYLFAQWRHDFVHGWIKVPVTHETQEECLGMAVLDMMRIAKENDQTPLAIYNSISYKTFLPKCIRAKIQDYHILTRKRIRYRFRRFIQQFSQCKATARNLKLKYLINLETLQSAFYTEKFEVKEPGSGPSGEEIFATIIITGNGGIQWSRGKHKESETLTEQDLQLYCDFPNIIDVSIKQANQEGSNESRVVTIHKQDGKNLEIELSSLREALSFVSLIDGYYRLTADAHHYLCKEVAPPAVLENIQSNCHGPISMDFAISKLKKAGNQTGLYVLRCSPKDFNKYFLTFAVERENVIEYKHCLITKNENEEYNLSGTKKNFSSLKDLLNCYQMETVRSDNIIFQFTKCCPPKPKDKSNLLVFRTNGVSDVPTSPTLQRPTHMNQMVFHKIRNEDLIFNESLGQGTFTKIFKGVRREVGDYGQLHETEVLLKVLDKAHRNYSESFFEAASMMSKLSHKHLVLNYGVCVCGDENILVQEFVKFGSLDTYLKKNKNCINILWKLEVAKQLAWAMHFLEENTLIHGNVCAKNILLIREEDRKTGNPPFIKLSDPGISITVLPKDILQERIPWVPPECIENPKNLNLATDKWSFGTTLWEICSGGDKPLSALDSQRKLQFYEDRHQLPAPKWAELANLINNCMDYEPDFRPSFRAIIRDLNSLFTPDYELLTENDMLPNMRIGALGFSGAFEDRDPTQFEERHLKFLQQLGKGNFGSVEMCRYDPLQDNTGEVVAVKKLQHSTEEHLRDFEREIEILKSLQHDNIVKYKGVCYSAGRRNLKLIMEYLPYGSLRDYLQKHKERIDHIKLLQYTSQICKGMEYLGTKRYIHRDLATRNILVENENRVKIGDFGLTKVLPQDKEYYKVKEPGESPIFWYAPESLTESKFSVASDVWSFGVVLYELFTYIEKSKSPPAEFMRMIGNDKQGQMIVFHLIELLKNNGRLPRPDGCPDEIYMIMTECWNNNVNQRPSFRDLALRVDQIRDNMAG

MERTK = MERTK (UniProt Q12866); test: as above
c-Abl (mouse) = test: as above
c-Src = test: as above
Grb2 SH2 = Grb2 SH2 (UniProt P62993); test: SH2 binding enrichment of the phosphorylated peptide, bacterial display (enrichment ratio); higher = better substrate or ligand; peptides without Tyr show the background
SHP2-C SH2 = test: as above
c-Src SH2 = test: as above
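Throughout, for SH2 binding enrichment of the phosphorylated peptide, bacterial display: peptide library displayed on the E. coli surface as eCPX fusions, selected cells deep-sequenced, score is each peptide's frequency after selection divided by its frequency in the input.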
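Throughout, for phosphorylation enrichment, bacterial display: 11-residue human phosphosite peptides and single-mutation variants displayed on the E. coli surface, counted by deep sequencing, each peptide's frequency after selection divided by its frequency in the unselected input library; frequency after pTyr selection over input frequency; kinase dosed for 20-30% of maximal phosphorylation in three min.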

Sequence of EPHB1 (P54762 whole entry, looked up): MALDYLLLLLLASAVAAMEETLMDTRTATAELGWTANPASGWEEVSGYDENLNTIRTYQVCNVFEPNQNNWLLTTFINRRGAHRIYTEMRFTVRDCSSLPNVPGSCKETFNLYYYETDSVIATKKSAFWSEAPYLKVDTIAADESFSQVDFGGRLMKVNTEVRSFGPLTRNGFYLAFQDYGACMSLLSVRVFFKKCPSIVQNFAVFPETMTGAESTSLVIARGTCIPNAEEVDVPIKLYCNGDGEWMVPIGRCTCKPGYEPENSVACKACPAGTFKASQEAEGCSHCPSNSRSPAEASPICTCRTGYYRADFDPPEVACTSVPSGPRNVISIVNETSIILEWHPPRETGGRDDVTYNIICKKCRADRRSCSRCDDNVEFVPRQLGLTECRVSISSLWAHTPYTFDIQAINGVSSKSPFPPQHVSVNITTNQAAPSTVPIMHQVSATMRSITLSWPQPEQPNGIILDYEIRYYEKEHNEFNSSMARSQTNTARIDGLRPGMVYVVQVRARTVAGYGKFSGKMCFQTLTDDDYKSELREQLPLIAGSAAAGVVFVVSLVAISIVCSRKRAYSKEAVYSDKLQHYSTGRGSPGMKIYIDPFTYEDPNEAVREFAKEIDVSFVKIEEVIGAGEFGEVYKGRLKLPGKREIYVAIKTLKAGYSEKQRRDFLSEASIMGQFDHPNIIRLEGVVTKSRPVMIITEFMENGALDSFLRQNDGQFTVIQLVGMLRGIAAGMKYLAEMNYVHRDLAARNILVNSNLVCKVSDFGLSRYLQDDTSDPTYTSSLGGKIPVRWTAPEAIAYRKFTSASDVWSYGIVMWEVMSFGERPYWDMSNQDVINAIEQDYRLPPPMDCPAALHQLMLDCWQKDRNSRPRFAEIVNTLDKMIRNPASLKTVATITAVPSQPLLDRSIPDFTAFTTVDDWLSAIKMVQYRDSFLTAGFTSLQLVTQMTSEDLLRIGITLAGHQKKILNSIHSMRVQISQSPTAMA

| SH2 binding enrichment (Grb2 SH2) | SH2 binding enrichment (SHP2-C SH2) | SH2 binding enrichment (c-Src SH2) | Sequence | phosphorylation enrichment (AncSZ) | phosphorylation enrichment (EPHB1) | phosphorylation enrichment (EPHB2) | phosphorylation enrichment (FGFR1) | phosphorylation enrichment (FGFR3) | phosphorylation enrichment (Fer (mouse)) | phosphorylation enrichment (Fes) | phosphorylation enrichment (Fyn) | phosphorylation enrichment (Hck) | phosphorylation enrichment (Jak2) | phosphorylation enrichment (MERTK) | phosphorylation enrichment (c-Abl (mouse)) | phosphorylation enrichment (c-Src) |
| --- | --- | --- | --- | --- | --- | --- | --- | --- | --- | --- | --- | --- | --- | --- | --- | --- |
| 0.867 | 1.28 | 0.528 | AGQEDDDRLRP [RAC1_Y64_Y64D] | 1.15 | 0.497 | 0.669 | 0.607 | 0.637 | 0.572 | 1.28 | 0.608 | 0.591 | 1.12 | 0.439 | 0.703 | 0.46 |
| 0.722 | 0.632 | 0.428 | HNLNFYKKTTN [FGFR3_Y648_D646N_YF] | 1.42 | 0.761 | 0.553 | 0.735 | 2.99 | 0.806 | 0.92 | 0.975 | 0.572 | 0.832 | 0.605 | 0.642 | 0.565 |
| 0.772 | 0.608 | 0.43 | EKRDAYVSRLN [GSR_Y150] | 0.547 | 0.455 | 0.434 | 0.418 | 0.441 | 0.328 | 0.575 | 0.351 | 0.429 | 0.48 | 0.397 | 0.423 | 0.377 |
| 0.899 | 0.905 | 0.535 | KDQGIYEDYVE [MYL6_Y86_T85I] | 1.2 | 0.74 | 0.853 | 0.58 | 0.672 | 1.03 | 1.08 | 2.05 | 1.06 | 0.936 | 0.489 | 0.851 | 2.02 |
| 1.32 | 1.65 | 1.28 | CLAQRYLIWEC [SCN5A_Y694_R689C] | 1.29 | 0.836 | 0.646 | 0.693 | 0.783 | 0.568 | 1.39 | 0.533 | 0.535 | 1.03 | 0.48 | 0.788 | 0.505 |
| 0.865 | 0.8 | 0.714 | DNEALYDICFC [TUBB3_Y208_R213C] | 6.01 | 4.22 | 5.33 | 0.748 | 0.992 | 12.5 | 1.73 | 7.33 | 5.92 | 1.46 | 8.05 | 2.07 | 6.25 |
| 0.672 | 0.708 | 0.541 | SGFESYGSSSY [RPA2_Y9] | 0.582 | 0.341 | 0.478 | 0.368 | 0.462 | 0.403 | 0.765 | 0.44 | 0.474 | 0.821 | 0.382 | 0.718 | 0.481 |
| 1.06 | 0.826 | 0.576 | EPNSRYTCKLE [USH2A_Y3745_Y3747C] | 1.02 | 0.556 | 0.562 | 0.621 | 0.724 | 0.566 | 0.985 | 0.563 | 0.549 | 0.897 | 0.497 | 0.762 | 0.539 |
| 1.03 | 0.635 | 0.897 | LHQSTYQRFDV [SLC7A14_Y693_YF] | 1.31 | 1.45 | 1.17 | 1.14 | 1.18 | 0.955 | 1.32 | 1.83 | 1.77 | 0.652 | 1.19 | 0.838 | 2.69 |
| 1.41 | 1.97 | 2.71 | CPTIHYNFMCN [TP53_Y234_T230P_YF] | 1.09 | 0.576 | 0.596 | 0.687 | 0.79 | 0.646 | 1.17 | 0.557 | 0.655 | 0.916 | 0.501 | 0.757 | 0.603 |
| 0.798 | 0.738 | 0.521 | LNPLIYTLRNA [OR4C46_Y285_K288R] | 1.79 | 0.576 | 0.9 | 0.922 | 0.863 | 1.03 | 1.12 | 4.69 | 7.15 | 1.31 | 1.97 | 1.76 | 6.62 |
| 0.764 | 0.544 | 0.356 | NIRKKYFRAIL [CHD7_Y1217_Q1214R_YF] | 0.583 | 0.466 | 0.6 | 0.48 | 0.546 | 0.394 | 0.661 | 0.45 | 0.451 | 0.496 | 0.555 | 0.633 | 0.504 |
| 0.675 | 0.472 | 0.244 | FSGQVYRQRRK [TH_Y230_D227G] | 0.855 | 0.604 | 0.772 | 0.546 | 0.64 | 0.582 | 0.697 | 0.774 | 0.718 | 0.769 | 1 | 0.789 | 1.13 |
| 0.8 | 0.803 | 1.11 | IITDYYVDMKF [MPP4_Y567_V562I] | 1.87 | 3.56 | 2.11 | 7.4 | 5.13 | 1.38 | 1.46 | 1.01 | 1.17 | 2.52 | 1.22 | 0.856 | 0.98 |
| 0.913 | 1.1 | 5.64 | CTTIPYNYMCN [TP53_Y234_H233P] | 1.18 | 0.528 | 0.509 | 0.543 | 0.605 | 0.424 | 0.863 | 0.47 | 0.433 | 0.791 | 0.418 | 0.615 | 0.55 |
| 0.966 | 0.762 | 0.553 | SLIDMYSEVLA [OPA1_Y268_D273A] | 1.24 | 0.766 | 0.869 | 1.12 | 0.832 | 0.891 | 1.03 | 0.959 | 0.873 | 0.925 | 0.615 | 0.539 | 1.61 |

Continued, sequence first:

| Sequence | SH2 binding enrichment (Grb2 SH2) | SH2 binding enrichment (SHP2-C SH2) | SH2 binding enrichment (c-Src SH2) | phosphorylation enrichment (AncSZ) | phosphorylation enrichment (EPHB1) | phosphorylation enrichment (EPHB2) | phosphorylation enrichment (FGFR1) | phosphorylation enrichment (FGFR3) | phosphorylation enrichment (Fer (mouse)) | phosphorylation enrichment (Fes) | phosphorylation enrichment (Fyn) | phosphorylation enrichment (Hck) | phosphorylation enrichment (Jak2) | phosphorylation enrichment (MERTK) | phosphorylation enrichment (c-Abl (mouse)) | phosphorylation enrichment (c-Src) |
| --- | --- | --- | --- | --- | --- | --- | --- | --- | --- | --- | --- | --- | --- | --- | --- | --- |
| AAALAYGLDKS [HSPA9_Y230] | 0.69 | 0.637 | 0.423 | 0.598 | 0.442 | 0.4 | 0.455 | 0.477 | 0.467 | 1.12 | 0.388 | 0.419 | 1.2 | 0.398 | 0.499 | 0.528 |
| SEDSEYYRAFE [CASQ2_Y178_K180R] | 0.901 | 0.67 | 0.47 | 2.7 | 0.67 | 0.696 | 0.869 | 1.24 | 0.515 | 1.29 | 0.823 | 0.685 | 1.29 | 0.523 | 0.89 | 0.824 |
| LQTYRYHGHSM [PDHA1_Y289] | 0.879 | 0.646 | 0.561 | 0.52 | 0.489 | 0.337 | 0.323 | 0.395 | 0.455 | 0.513 | 0.414 | 0.288 | 0.569 | 0.698 | 0.411 | 0.285 |
| KVGPGSLGSGG [RET_Y826_Y826S] | 0.778 | 0.526 | 0.447 | 0.4 | 0.29 | 0.353 | 0.308 | 0.366 | 0.293 | 0.489 | 0.352 | 0.323 | 0.466 | 0.3 | 0.482 | 0.374 |
| EEHIPYTHMNG [INSR_Y1361] | 0.754 | 0.807 | 0.722 | 0.797 | 0.54 | 0.517 | 0.497 | 0.598 | 0.452 | 0.85 | 0.451 | 0.51 | 0.668 | 0.403 | 0.555 | 0.371 |
| GFKVRYATGSI [FGFR1_Y210_W213G_YF] | 1.28 | 1 | 0.706 | 0.628 | 0.473 | 0.404 | 0.516 | 0.471 | 0.362 | 0.689 | 0.417 | 0.44 | 0.651 | 0.455 | 0.541 | 0.343 |
| NFSKMYCNPDA [KNL1_Y489_A486S_YF] | 0.751 | 0.619 | 2.54 | 0.94 | 0.562 | 0.613 | 0.46 | 0.802 | 0.563 | 0.924 | 0.486 | 0.488 | 0.894 | 0.524 | 0.699 | 0.426 |
| IQTDGYRAPEA [UHMK1_Y197] | 0.763 | 0.727 | 0.505 | 0.601 | 0.782 | 0.496 | 0.447 | 0.382 | 0.461 | 0.829 | 0.428 | 0.717 | 1.25 | 0.491 | 0.725 | 0.398 |
| ATGLIYIGSHD [AASDH_Y870_T865A] | 0.759 | 0.526 | 0.598 | 0.827 | 0.724 | 0.724 | 0.427 | 0.684 | 0.52 | 1.15 | 0.427 | 0.469 | 0.809 | 0.543 | 0.881 | 0.492 |
| SVVVTYEPPEV [TP53_Y220_P219T] | 0.722 | 0.761 | 0.729 | 1.57 | 1.06 | 1.61 | 0.493 | 0.708 | 0.752 | 1.32 | 0.516 | 0.697 | 0.969 | 0.779 | 0.961 | 0.623 |
| VYLGAYDCFLP [SLC22A5_Y486_R488C] | 1.1 | 1.36 | 0.992 | 2.18 | 5.46 | 8.08 | 1.15 | 1.09 | 7.23 | 1.41 | 7.34 | 5.14 | 1.28 | 7.36 | 1.77 | 6.4 |
| YGSSSYRGAGG [RPA2_Y14_G15R] | 0.877 | 0.507 | 0.49 | 0.491 | 0.393 | 0.334 | 0.343 | 0.409 | 0.465 | 0.483 | 0.386 | 0.443 | 0.528 | 0.369 | 0.623 | 0.412 |
| WHHTFYNELRV [ACTA1_Y93] | 1.2 | 1.52 | 1.9 | 0.875 | 0.558 | 0.483 | 0.552 | 0.645 | 0.54 | 1.01 | 0.502 | 0.997 | 0.783 | 0.587 | 0.657 | 0.546 |
| VDSNPYSRLMA [UBA5_Y53] | 0.699 | 3.31 | 1.57 | 0.608 | 0.465 | 0.488 | 0.468 | 0.533 | 1.04 | 0.657 | 0.756 | 1.72 | 0.47 | 0.524 | 0.469 | 1.16 |
| KLADVYQAELR [GFAP_Y116] | 0.844 | 0.561 | 0.486 | 0.789 | 0.533 | 0.459 | 0.472 | 0.667 | 0.445 | 0.792 | 0.492 | 0.47 | 0.549 | 0.429 | 0.549 | 0.634 |
| RLTEGYTGPFK [ZNF862_Y181_I178T] | 1.14 | 0.547 | 0.522 | 0.519 | 0.323 | 0.41 | 0.364 | 0.456 | 0.382 | 0.611 | 0.473 | 0.509 | 0.625 | 0.402 | 0.426 | 0.423 |
| VDSAHYKLLET [DTX3L_Y385] | 0.793 | 0.67 | 0.517 | 0.665 | 0.355 | 0.574 | 0.485 | 0.657 | 0.427 | 0.722 | 0.485 | 0.543 | 0.517 | 0.419 | 0.466 | 0.401 |
